Test results: patent US20240400654A1
Several values for one entry are separate records, joined by “and”; a condition that tells them apart may be missing. Equal entries are not always repeated.

B1: KB001 mouse Fab VL Y97E (Fab, V domains shown)
VH: EVQLKQSGPGLVAPSQSLSITCTVSGFSLSIYSVHWVRQPPGKGLEWLGMIWGGGSSDYNSALKSRLSISKDNSKSQVFLKMNSLQTDDTAMYYCARNGNFYAMDYWGQGTSVTVSS
VL: QIVLTQSPAIMSASLGERVTMTCTASSSVSSSFLHWYQQKPGSSPQLWIYSTSNLASGVPARFSGSGSGTSYSLTISSMEAEDAATYYCHQYHHSPEIYTFGGGTKLEIK
B2: KB001 mouse Fab VL T100Q (Fab, V domains shown)
VH: EVQLKQSGPGLVAPSQSLSITCTVSGFSLSIYSVHWVRQPPGKGLEWLGMIWGGGSSDYNSALKSRLSISKDNSKSQVFLKMNSLQTDDTAMYYCARNGNFYAMDYWGQGTSVTVSS
VL: QIVLTQSPAIMSASLGERVTMTCTASSSVSSSFLHWYQQKPGSSPQLWIYSTSNLASGVPARFSGSGSGTSYSLTISSMEAEDAATYYCHQYHHSPYIYQFGGGTKLEIK
B3: KB001 mouse Fab VL T100G (Fab, V domains shown)
VH: EVQLKQSGPGLVAPSQSLSITCTVSGFSLSIYSVHWVRQPPGKGLEWLGMIWGGGSSDYNSALKSRLSISKDNSKSQVFLKMNSLQTDDTAMYYCARNGNFYAMDYWGQGTSVTVSS
VL: QIVLTQSPAIMSASLGERVTMTCTASSSVSSSFLHWYQQKPGSSPQLWIYSTSNLASGVPARFSGSGSGTSYSLTISSMEAEDAATYYCHQYHHSPYIYGFGGGTKLEIK
B4: KB001 mouse Fab VL T100Y (Fab, V domains shown)
VH: EVQLKQSGPGLVAPSQSLSITCTVSGFSLSIYSVHWVRQPPGKGLEWLGMIWGGGSSDYNSALKSRLSISKDNSKSQVFLKMNSLQTDDTAMYYCARNGNFYAMDYWGQGTSVTVSS
VL: QIVLTQSPAIMSASLGERVTMTCTASSSVSSSFLHWYQQKPGSSPQLWIYSTSNLASGVPARFSGSGSGTSYSLTISSMEAEDAATYYCHQYHHSPYIYYFGGGTKLEIK
B5: KB001 mouse Fab VL T100F (Fab, V domains shown)
VH: EVQLKQSGPGLVAPSQSLSITCTVSGFSLSIYSVHWVRQPPGKGLEWLGMIWGGGSSDYNSALKSRLSISKDNSKSQVFLKMNSLQTDDTAMYYCARNGNFYAMDYWGQGTSVTVSS
VL: QIVLTQSPAIMSASLGERVTMTCTASSSVSSSFLHWYQQKPGSSPQLWIYSTSNLASGVPARFSGSGSGTSYSLTISSMEAEDAATYYCHQYHHSPYIYFFGGGTKLEIK
B6: KB001 mouse Fab VL T100R (Fab, V domains shown)
VH: EVQLKQSGPGLVAPSQSLSITCTVSGFSLSIYSVHWVRQPPGKGLEWLGMIWGGGSSDYNSALKSRLSISKDNSKSQVFLKMNSLQTDDTAMYYCARNGNFYAMDYWGQGTSVTVSS
VL: QIVLTQSPAIMSASLGERVTMTCTASSSVSSSFLHWYQQKPGSSPQLWIYSTSNLASGVPARFSGSGSGTSYSLTISSMEAEDAATYYCHQYHHSPYIYRFGGGTKLEIK
B7: KB001 mouse Fab VL T100H (Fab, V domains shown)
VH: EVQLKQSGPGLVAPSQSLSITCTVSGFSLSIYSVHWVRQPPGKGLEWLGMIWGGGSSDYNSALKSRLSISKDNSKSQVFLKMNSLQTDDTAMYYCARNGNFYAMDYWGQGTSVTVSS
VL: QIVLTQSPAIMSASLGERVTMTCTASSSVSSSFLHWYQQKPGSSPQLWIYSTSNLASGVPARFSGSGSGTSYSLTISSMEAEDAATYYCHQYHHSPYIYHFGGGTKLEIK
B8: KB001 mouse Fab VL T100W (Fab, V domains shown)
VH: EVQLKQSGPGLVAPSQSLSITCTVSGFSLSIYSVHWVRQPPGKGLEWLGMIWGGGSSDYNSALKSRLSISKDNSKSQVFLKMNSLQTDDTAMYYCARNGNFYAMDYWGQGTSVTVSS
VL: QIVLTQSPAIMSASLGERVTMTCTASSSVSSSFLHWYQQKPGSSPQLWIYSTSNLASGVPARFSGSGSGTSYSLTISSMEAEDAATYYCHQYHHSPYIYWFGGGTKLEIK
B9: KB001 mouse Fab VL T100E (Fab, V domains shown)
VH: EVQLKQSGPGLVAPSQSLSITCTVSGFSLSIYSVHWVRQPPGKGLEWLGMIWGGGSSDYNSALKSRLSISKDNSKSQVFLKMNSLQTDDTAMYYCARNGNFYAMDYWGQGTSVTVSS
VL: QIVLTQSPAIMSASLGERVTMTCTASSSVSSSFLHWYQQKPGSSPQLWIYSTSNLASGVPARFSGSGSGTSYSLTISSMEAEDAATYYCHQYHHSPYIYEFGGGTKLEIK
B10: KB001 mouse Fab VL T100M (Fab, V domains shown)
VH: EVQLKQSGPGLVAPSQSLSITCTVSGFSLSIYSVHWVRQPPGKGLEWLGMIWGGGSSDYNSALKSRLSISKDNSKSQVFLKMNSLQTDDTAMYYCARNGNFYAMDYWGQGTSVTVSS
VL: QIVLTQSPAIMSASLGERVTMTCTASSSVSSSFLHWYQQKPGSSPQLWIYSTSNLASGVPARFSGSGSGTSYSLTISSMEAEDAATYYCHQYHHSPYIYMFGGGTKLEIK
B11: KB001 mouse Fab VL T100L (Fab, V domains shown)
VH: EVQLKQSGPGLVAPSQSLSITCTVSGFSLSIYSVHWVRQPPGKGLEWLGMIWGGGSSDYNSALKSRLSISKDNSKSQVFLKMNSLQTDDTAMYYCARNGNFYAMDYWGQGTSVTVSS
VL: QIVLTQSPAIMSASLGERVTMTCTASSSVSSSFLHWYQQKPGSSPQLWIYSTSNLASGVPARFSGSGSGTSYSLTISSMEAEDAATYYCHQYHHSPYIYLFGGGTKLEIK
B12: KB001 mouse Fab VL T100S (Fab, V domains shown)
VH: EVQLKQSGPGLVAPSQSLSITCTVSGFSLSIYSVHWVRQPPGKGLEWLGMIWGGGSSDYNSALKSRLSISKDNSKSQVFLKMNSLQTDDTAMYYCARNGNFYAMDYWGQGTSVTVSS
VL: QIVLTQSPAIMSASLGERVTMTCTASSSVSSSFLHWYQQKPGSSPQLWIYSTSNLASGVPARFSGSGSGTSYSLTISSMEAEDAATYYCHQYHHSPYIYSFGGGTKLEIK
B13: KB001 mouse Fab VL T24I (Fab, V domains shown)
VH: EVQLKQSGPGLVAPSQSLSITCTVSGFSLSIYSVHWVRQPPGKGLEWLGMIWGGGSSDYNSALKSRLSISKDNSKSQVFLKMNSLQTDDTAMYYCARNGNFYAMDYWGQGTSVTVSS
VL: QIVLTQSPAIMSASLGERVTMTCIASSSVSSSFLHWYQQKPGSSPQLWIYSTSNLASGVPARFSGSGSGTSYSLTISSMEAEDAATYYCHQYHHSPYIYTFGGGTKLEIK
B14: KB001 mouse Fab VL T24K/R18S (Fab, V domains shown)
VH: EVQLKQSGPGLVAPSQSLSITCTVSGFSLSIYSVHWVRQPPGKGLEWLGMIWGGGSSDYNSALKSRLSISKDNSKSQVFLKMNSLQTDDTAMYYCARNGNFYAMDYWGQGTSVTVSS
VL: QIVLTQSPAIMSASLGESVTMTCKASSSVSSSFLHWYQQKPGSSPQLWIYSTSNLASGVPARFSGSGSGTSYSLTISSMEAEDAATYYCHQYHHSPYIYTFGGGTKLEIK
B15: KB001 mouse Fab VL T24L (Fab, V domains shown)
VH: EVQLKQSGPGLVAPSQSLSITCTVSGFSLSIYSVHWVRQPPGKGLEWLGMIWGGGSSDYNSALKSRLSISKDNSKSQVFLKMNSLQTDDTAMYYCARNGNFYAMDYWGQGTSVTVSS
VL: QIVLTQSPAIMSASLGERVTMTCLASSSVSSSFLHWYQQKPGSSPQLWIYSTSNLASGVPARFSGSGSGTSYSLTISSMEAEDAATYYCHQYHHSPYIYTFGGGTKLEIK

target: HRgpA-6H (Porphyromonas gingivalis) (UniProt P28784); test: ELISA, coated HRgpA-6H
Chain of UniProt P28784 (P28784 228-860 limits assumed): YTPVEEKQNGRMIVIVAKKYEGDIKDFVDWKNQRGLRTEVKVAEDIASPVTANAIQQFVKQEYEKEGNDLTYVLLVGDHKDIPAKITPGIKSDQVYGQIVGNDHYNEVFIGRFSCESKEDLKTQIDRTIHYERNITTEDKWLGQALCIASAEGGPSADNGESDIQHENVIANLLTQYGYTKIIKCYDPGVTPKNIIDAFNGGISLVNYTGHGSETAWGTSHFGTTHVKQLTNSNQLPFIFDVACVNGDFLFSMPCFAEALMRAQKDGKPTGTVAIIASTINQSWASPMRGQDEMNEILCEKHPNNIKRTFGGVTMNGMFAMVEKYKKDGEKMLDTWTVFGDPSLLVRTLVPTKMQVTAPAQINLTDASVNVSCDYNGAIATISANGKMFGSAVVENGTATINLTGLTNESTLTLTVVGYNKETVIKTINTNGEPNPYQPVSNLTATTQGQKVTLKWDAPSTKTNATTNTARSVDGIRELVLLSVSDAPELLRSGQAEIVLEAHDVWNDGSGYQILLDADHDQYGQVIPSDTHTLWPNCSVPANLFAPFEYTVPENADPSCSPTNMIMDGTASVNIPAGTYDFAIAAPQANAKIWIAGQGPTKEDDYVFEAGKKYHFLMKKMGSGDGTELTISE

Binder	OD450 nm	Ratio OD(Variant)/OD(WT)
B1	0.793	1
B2	0.586 and 0.596 and 0.604	1.12 and 1.14 and 1.15
B3	0.603 and 0.597	1.15 and 1.14
B4	0.546	1.04
B5	0.552	1.05
B6	0.616	1.18
B7	0.597 and 0.631	1.14 and 1.21
B8	0.585	1.12
B9	0.613 and 0.621 and 0.674	1.17 and 1.19 and 1.29
B10	0.589	1.12
B11	0.587 and 0.566	1.12 and 1.08
B12	0.602 and 0.664 and 0.625	1.15 and 1.27 and 1.19
B13	0.741	0.964
B14	0.761	0.99
B15	0.753 and 0.752 and 0.667	0.979 and 0.978 and 0.867
